The target of this test is soluble CD8αα (human). The experiment in a line: SPR.

pKd: −log10 of the molar value.

Here are results for two substances from paper PMC9424912.

As to “soluble MR1-β2m-Ac-6-FP monomer (WT) (from UniProt Q95460 23-292; P61769 21-119) (complex)”, the pKd was 3.75.

“HLA-A*02:01-NLV monomer (WT) (from UniProt P61769 21-119) (peptide-MHC)” showed a pKd of 3.64.

A word on the pKd: it is the negative decadic logarithm of the Kd, by convention in mol/L. A lower pKd goes with a large Kd.
